Experimental findings from patent US9803012B2, “Compositions and methods for regulating SAS1R” (UNIVERSITY OF VIRGINIA PATENT FOUNDATION, priority 2005, dated 2017) are described below.

Assay type in all cases: cell-based
The test system of assay [1] is mouse eggs. As to the kind of experiment: Binding of SLLP2 to mouse eggs. On the procedure:
To analyze the biologic activity of human SLLP2, it was determined whether it would bind to an egg, in this case, a mouse egg.
(§1) For comparison to the use of human sperm SLLP2, an experiment was performed to determine if purified mouse SLLP2 would bind to Zona intact mouse eggs. […] Competitive assays were then performed to determine whether the addition of recombinant mouse SLLP2 to a mixture of mouse sperm and mouse eggs could inhibit binding of sperm and eggs. Various amounts of recombinant mouse SLLP2 were added (5, 25, 50, 100, and 200 μg/ml) and the number of sperm bound per egg was determined.

Assay [2] deals with mouse sperm and mouse eggs. Briefly: Competitive assay of sperm-egg binding with recombinant mouse SLLP2. The settings on record: 5, 25, 50, 100 and 200 μg/ml, relative to BSA (200 μg/ml) or PBS controls. The procedure:
as §1

The next assay relates to mouse sperm-egg fusion. Briefly: Mouse sperm-egg fusion with recombinant mouse SLLP2. The settings on record: 100 or 200 μg/ml, relative to BSA and PBS controls. The procedure:
Next, it was determined whether recombinant mouse SLLP2 could inhibit mouse sperm-egg fusion. In groups treated with recombinant mouse SLLP2 the number of sperm fused per egg was reduced to about 0.1 sperm fused per egg, at concentrations of 100 or 200 μg/ml recombinant mouse SLLP2, relative to BSA and PBS control treatments.

In assay [3] the test system is mouse eggs. Briefly: Fertilization of mouse eggs with mouse sperm with recombinant mouse SLLP2. The procedure:
Recombinant mouse SLLP2 at concentrations of 25, 50, 100, and 200 μg/ml was incubated with sperm and egg, and compared to BSA and PBS controls as described above. It can be seen that fertilization occurred at a rate of about 75% in the BSA and PBS controls groups. […] Also provided are comparisons of human SLLP2 to other mammalian sequences, and well as a comparison indicating the conservation of SLLP2 ortholog in dogs.

B1: recombinant mouse SLLP2: purified recombinant mouse sperm lysozyme-like protein 2 (mature protein SEQ ID NO:16) (protein, listed as Mus musculus)
chain: KIYERCELAKKLEEAGLDGFKGYTVGDWLCVAHYESGFDTSFVDHNPDGSSEYGIFQLNSAWWCNNGITPTQNLCNIDCNDLLNRHILDDIICAKRVASSHKSMKAWDSWTQHCAGHDLSEWLKGCSVRLKTDSSYNNW
B1: the “binding to Zona-free mouse eggs” value with mouse eggs [1] (mouse SLLP2) is on record as “would bind to Zona-free mouse eggs”. In addition, the “binding to Zona intact mouse eggs” value with mouse eggs [1] (purified mouse SLLP2) is “does indeed bind to mouse eggs”. Besides, the “number of sperm bound per egg” value in assay [2] is “able to reduce the amount of binding occurring between sperm and egg”. Further, the “number of sperm fused per egg” value in the assay on mouse sperm-egg fusion was “about 0.1 sperm fused per egg”. The inhibition of fertilization entry in the assay on mouse eggs [3] (200 μg/ml) is listed as “nearly totally inhibiting fertilization”; in the assay with mouse eggs [3] (25, 50, 100 and 200 μg/ml, vs BSA and PBS controls), “inhibited fertilization in a dose-dependent fashion”.
